Results on nine molecules are retold here after paper PMC9521027 (ACS Omega, 2022).

Series [1] concerns the target T1, URAT1 K393H mutant (Homo sapiens, UniProt Q96S37, K393H).
T1 sequence (Q96S37 1-553 K393H): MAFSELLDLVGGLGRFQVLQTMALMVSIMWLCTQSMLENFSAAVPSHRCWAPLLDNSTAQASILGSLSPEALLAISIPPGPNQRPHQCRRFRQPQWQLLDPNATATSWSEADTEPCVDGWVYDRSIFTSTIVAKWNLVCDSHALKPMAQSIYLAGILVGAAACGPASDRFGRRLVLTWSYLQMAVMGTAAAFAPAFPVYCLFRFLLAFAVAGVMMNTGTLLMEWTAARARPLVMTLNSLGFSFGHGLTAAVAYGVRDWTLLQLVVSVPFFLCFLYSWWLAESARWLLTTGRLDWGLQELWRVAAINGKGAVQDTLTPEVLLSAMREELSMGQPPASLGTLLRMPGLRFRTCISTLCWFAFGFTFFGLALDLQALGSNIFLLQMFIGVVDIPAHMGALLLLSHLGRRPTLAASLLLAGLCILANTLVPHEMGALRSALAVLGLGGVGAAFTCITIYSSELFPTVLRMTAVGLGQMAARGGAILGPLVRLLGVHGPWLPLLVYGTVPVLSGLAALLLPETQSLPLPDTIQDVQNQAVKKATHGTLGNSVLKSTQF
As to the kind of experiment: 14C-uric acid binding assay with membrane protein. Particulars: 1 μM BM, 1 μM verinurad, 10 μM lesinurad, 20 μM probenecid, 30 min, 25 μM 14C-uric acid.

In series [2] the target is T2, URAT1 K393R mutant (Homo sapiens, UniProt Q96S37, K393R).
T2 sequence (Q96S37 1-553 K393R): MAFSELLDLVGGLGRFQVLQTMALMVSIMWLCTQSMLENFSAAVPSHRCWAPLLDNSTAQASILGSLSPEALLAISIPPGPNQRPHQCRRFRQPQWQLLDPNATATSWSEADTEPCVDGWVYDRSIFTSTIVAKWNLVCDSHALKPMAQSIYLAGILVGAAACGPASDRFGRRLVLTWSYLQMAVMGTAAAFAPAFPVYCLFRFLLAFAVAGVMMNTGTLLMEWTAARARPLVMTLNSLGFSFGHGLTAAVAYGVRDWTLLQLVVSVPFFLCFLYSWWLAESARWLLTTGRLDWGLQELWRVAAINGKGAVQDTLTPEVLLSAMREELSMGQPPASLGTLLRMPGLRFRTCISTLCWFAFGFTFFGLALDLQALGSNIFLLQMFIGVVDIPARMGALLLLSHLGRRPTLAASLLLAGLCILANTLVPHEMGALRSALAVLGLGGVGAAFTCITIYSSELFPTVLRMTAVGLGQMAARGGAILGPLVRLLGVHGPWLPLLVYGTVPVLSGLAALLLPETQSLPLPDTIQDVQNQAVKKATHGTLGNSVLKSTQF
As to the kind of experiment: 14C-uric acid binding assay with membrane protein. Particulars: 1 μM BM, 1 μM verinurad, 10 μM lesinurad, 20 μM probenecid, 30 min, 25 μM 14C-uric acid.

Substrate in series [3]: O=c1[nH]c(=O)c2[nH]c(=O)[nH]c2[nH]1
The series can be described thus: Saturation kinetic experiment of 14C-uric acid uptake. The series is classed as cell-based, human. The following applies: 10–200 μM 14C-uric acid, 20 min, HEK293, n = 3.

“And” between values parts separate entries of the source, which are not always exact repeats. Equal entries are not always repeated.

For the molecule `CCc1oc2ccccc2c1C(=O)c1cc(Br)c(O)c(Br)c1` [BM, benzbromarone], the “Effect of inhibitor on 14C-uric acid binding compared with WT group” value (“Effect of inhibitor … compared with WT group” below) in series [1] and in series [2] was “poorly interfered” each time.
Consider `O=C(O)CSc1nnc(Br)n1-c1ccc(C2CC2)c2ccccc12` [lesinurad], for which the “Effect of inhibitor … compared with WT group” value in series [1] and in series [2] was “similar” each time.
As to `CCCN(CCC)S(=O)(=O)c1ccc(C(=O)O)cc1` [probenecid], the “Effect of inhibitor … compared with WT group” value in series [1] and in series [2] was “similar” in each case.

B1: hURAT1 K393R mutant (Homo sapiens; K393R) (protein)
chain: MAFSELLDLVGGLGRFQVLQTMALMVSIMWLCTQSMLENFSAAVPSHRCWAPLLDNSTAQASILGSLSPEALLAISIPPGPNQRPHQCRRFRQPQWQLLDPNATATSWSEADTEPCVDGWVYDRSIFTSTIVAKWNLVCDSHALKPMAQSIYLAGILVGAAACGPASDRFGRRLVLTWSYLQMAVMGTAAAFAPAFPVYCLFRFLLAFAVAGVMMNTGTLLMEWTAARARPLVMTLNSLGFSFGHGLTAAVAYGVRDWTLLQLVVSVPFFLCFLYSWWLAESARWLLTTGRLDWGLQELWRVAAINGKGAVQDTLTPEVLLSAMREELSMGQPPASLGTLLRMPGLRFRTCISTLCWFAFGFTFFGLALDLQALGSNIFLLQMFIGVVDIPARMGALLLLSHLGRRPTLAASLLLAGLCILANTLVPHEMGALRSALAVLGLGGVGAAFTCITIYSSELFPTVLRMTAVGLGQMAARGGAILGPLVRLLGVHGPWLPLLVYGTVPVLSGLAALLLPETQSLPLPDTIQDVQNQAVKKATHGTLGNSVLKSTQF
The term Km denotes the concentration of substrate that gives half-maximal velocity. As a reminder, the Vmax is the rate approached at saturating substrate. In the case of B1, in series [3] (other: K393R), the Michaelis-Menten constant (Km) is 128.11 μM and 101.23 ± 26.11 (ns) μM; the maximal velocity (Vmax) was 557.21 ± 89.21(ns).

B2: hURAT1 K393A mutant (Homo sapiens; K393A) (protein)
chain: MAFSELLDLVGGLGRFQVLQTMALMVSIMWLCTQSMLENFSAAVPSHRCWAPLLDNSTAQASILGSLSPEALLAISIPPGPNQRPHQCRRFRQPQWQLLDPNATATSWSEADTEPCVDGWVYDRSIFTSTIVAKWNLVCDSHALKPMAQSIYLAGILVGAAACGPASDRFGRRLVLTWSYLQMAVMGTAAAFAPAFPVYCLFRFLLAFAVAGVMMNTGTLLMEWTAARARPLVMTLNSLGFSFGHGLTAAVAYGVRDWTLLQLVVSVPFFLCFLYSWWLAESARWLLTTGRLDWGLQELWRVAAINGKGAVQDTLTPEVLLSAMREELSMGQPPASLGTLLRMPGLRFRTCISTLCWFAFGFTFFGLALDLQALGSNIFLLQMFIGVVDIPAAMGALLLLSHLGRRPTLAASLLLAGLCILANTLVPHEMGALRSALAVLGLGGVGAAFTCITIYSSELFPTVLRMTAVGLGQMAARGGAILGPLVRLLGVHGPWLPLLVYGTVPVLSGLAALLLPETQSLPLPDTIQDVQNQAVKKATHGTLGNSVLKSTQF
For B2, in series [3] (other: K393A), the Michaelis-Menten constant (Km) turned out to be 172.12 ± 27.12 µM and the Vmax was 0.000464 µmol/min/mg.

B3: hURAT1 K393E mutant (Homo sapiens; K393E) (protein)
chain: MAFSELLDLVGGLGRFQVLQTMALMVSIMWLCTQSMLENFSAAVPSHRCWAPLLDNSTAQASILGSLSPEALLAISIPPGPNQRPHQCRRFRQPQWQLLDPNATATSWSEADTEPCVDGWVYDRSIFTSTIVAKWNLVCDSHALKPMAQSIYLAGILVGAAACGPASDRFGRRLVLTWSYLQMAVMGTAAAFAPAFPVYCLFRFLLAFAVAGVMMNTGTLLMEWTAARARPLVMTLNSLGFSFGHGLTAAVAYGVRDWTLLQLVVSVPFFLCFLYSWWLAESARWLLTTGRLDWGLQELWRVAAINGKGAVQDTLTPEVLLSAMREELSMGQPPASLGTLLRMPGLRFRTCISTLCWFAFGFTFFGLALDLQALGSNIFLLQMFIGVVDIPAEMGALLLLSHLGRRPTLAASLLLAGLCILANTLVPHEMGALRSALAVLGLGGVGAAFTCITIYSSELFPTVLRMTAVGLGQMAARGGAILGPLVRLLGVHGPWLPLLVYGTVPVLSGLAALLLPETQSLPLPDTIQDVQNQAVKKATHGTLGNSVLKSTQF
Take B3: in series [3] (other: K393E), the Km was 201.23 ± 23.65 µM and the Vmax is 0.000424 µmol/min/mg.

B4: hURAT1 K393H mutant (Homo sapiens; K393H) (protein)
chain: MAFSELLDLVGGLGRFQVLQTMALMVSIMWLCTQSMLENFSAAVPSHRCWAPLLDNSTAQASILGSLSPEALLAISIPPGPNQRPHQCRRFRQPQWQLLDPNATATSWSEADTEPCVDGWVYDRSIFTSTIVAKWNLVCDSHALKPMAQSIYLAGILVGAAACGPASDRFGRRLVLTWSYLQMAVMGTAAAFAPAFPVYCLFRFLLAFAVAGVMMNTGTLLMEWTAARARPLVMTLNSLGFSFGHGLTAAVAYGVRDWTLLQLVVSVPFFLCFLYSWWLAESARWLLTTGRLDWGLQELWRVAAINGKGAVQDTLTPEVLLSAMREELSMGQPPASLGTLLRMPGLRFRTCISTLCWFAFGFTFFGLALDLQALGSNIFLLQMFIGVVDIPAHMGALLLLSHLGRRPTLAASLLLAGLCILANTLVPHEMGALRSALAVLGLGGVGAAFTCITIYSSELFPTVLRMTAVGLGQMAARGGAILGPLVRLLGVHGPWLPLLVYGTVPVLSGLAALLLPETQSLPLPDTIQDVQNQAVKKATHGTLGNSVLKSTQF
As for B4, in series [3] (other: K393H), the Km was 101.23 μM and 128.11 ± 19.12 (ns) μM; the Vmax amounted to 0.000447 µmol/min/mg.

B5: hURAT1 WT (Homo sapiens) (protein)
chain: MAFSELLDLVGGLGRFQVLQTMALMVSIMWLCTQSMLENFSAAVPSHRCWAPLLDNSTAQASILGSLSPEALLAISIPPGPNQRPHQCRRFRQPQWQLLDPNATATSWSEADTEPCVDGWVYDRSIFTSTIVAKWNLVCDSHALKPMAQSIYLAGILVGAAACGPASDRFGRRLVLTWSYLQMAVMGTAAAFAPAFPVYCLFRFLLAFAVAGVMMNTGTLLMEWTAARARPLVMTLNSLGFSFGHGLTAAVAYGVRDWTLLQLVVSVPFFLCFLYSWWLAESARWLLTTGRLDWGLQELWRVAAINGKGAVQDTLTPEVLLSAMREELSMGQPPASLGTLLRMPGLRFRTCISTLCWFAFGFTFFGLALDLQALGSNIFLLQMFIGVVDIPAKMGALLLLSHLGRRPTLAASLLLAGLCILANTLVPHEMGALRSALAVLGLGGVGAAFTCITIYSSELFPTVLRMTAVGLGQMAARGGAILGPLVRLLGVHGPWLPLLVYGTVPVLSGLAALLLPETQSLPLPDTIQDVQNQAVKKATHGTLGNSVLKSTQF
For the molecule B5, in series [3] (other: WT), the Km was determined as 106.45 ± 16.45 µM and the Vmax stood at 0.000654 µmol/min/mg.

B6: hURAT1 K393D mutant (Homo sapiens; K393D) (protein)
chain: MAFSELLDLVGGLGRFQVLQTMALMVSIMWLCTQSMLENFSAAVPSHRCWAPLLDNSTAQASILGSLSPEALLAISIPPGPNQRPHQCRRFRQPQWQLLDPNATATSWSEADTEPCVDGWVYDRSIFTSTIVAKWNLVCDSHALKPMAQSIYLAGILVGAAACGPASDRFGRRLVLTWSYLQMAVMGTAAAFAPAFPVYCLFRFLLAFAVAGVMMNTGTLLMEWTAARARPLVMTLNSLGFSFGHGLTAAVAYGVRDWTLLQLVVSVPFFLCFLYSWWLAESARWLLTTGRLDWGLQELWRVAAINGKGAVQDTLTPEVLLSAMREELSMGQPPASLGTLLRMPGLRFRTCISTLCWFAFGFTFFGLALDLQALGSNIFLLQMFIGVVDIPADMGALLLLSHLGRRPTLAASLLLAGLCILANTLVPHEMGALRSALAVLGLGGVGAAFTCITIYSSELFPTVLRMTAVGLGQMAARGGAILGPLVRLLGVHGPWLPLLVYGTVPVLSGLAALLLPETQSLPLPDTIQDVQNQAVKKATHGTLGNSVLKSTQF
Consider B6, for which, in series [3] (other: K393D), the Michaelis-Menten constant (Km) is 165.36 ± 23.41 µM and the Vmax was 0.000497 µmol/min/mg.
